In patent publication US20230279115A1 (MABWELL SHANGHAI BIOSCIENCE, published 2023):

B1: hzF2-m9 (VHH)
VHH: EVQLVESGGGLVQPGGSLRLSCAASRDSDEGASCMGWFRQAPGKEREGVAIIFNAGERTDYGDSVKGRFTISRDNAKNTLYLQMNSLRAEDTAVYYCATVWCGSWVARSWGQGTLVTVSS
notes: also called humanized single variable domain antibody hzF2-m9
B2: hzF2-m8 (VHH)
VHH: EVQLVESGGGLVQPGGSLRLSCAASRDSDDGASCMGWFRQAPGKEREGVAIIFNVGERTDYGDSVKGRFTISRDNAKNTLYLQMNSLRAEDTAVYYCATVWCGSWVARSWGQGTLVTVSS
notes: also called humanized single variable domain antibody hzF2-m8
B3: hzF2-m13 (VHH)
VHH: EVQLVESGGGLVQPGGSLRLSCAASRDSDDGASCMGWFRQAPGKEREGVAIIFNAGERTDYGDSVKGRFTISRDNAKNTLYLQMNSLRAEDTAVYYCATVFCGSFVARSWGQGTLVTVSS
notes: Framework 2 is KEREG; also called humanized single variable domain antibody hzF2-m13
B4: hzF2-m16 (VHH)
VHH: EVQLVESGGGLVQPGGSLRLSCAASRDSDEGASCMGWFRQAPGKEREGVAIIFNVGERTDYGDSVKGRFTISRDNAKNTLYLQMNSLRAEDTAVYYCATVFCGSFVARSWGQGTLVTVSS
notes: Framework 2 is KEREG; also called humanized single variable domain antibody hzF2-m16
B5: hzF2-m10 (VHH)
VHH: EVQLVESGGGLVQPGGSLRLSCAASRDSDDGASCMGWFRQAPGKEREGVAIIFNAGERTDYGDSVKGRFTISRDNAKNTLYLQMNSLRAEDTAVYYCATVYCGSWVARSWGQGTLVTVSS
notes: Framework 2 is KEREG; also called humanized single variable domain antibody hzF2-m10
B6: hzF2-m14 (VHH)
VHH: EVQLVESGGGLVQPGGSLRLSCAASRDSDEGASCMGWFRQAPGKEREGVAIIFNVGERTDYGDSVKGRFTISRDNAKNTLYLQMNSLRAEDTAVYYCATVYCGSYVARSWGQGTLVTVSS
notes: Framework 2 is KEREG; also called humanized single variable domain antibody hzF2-m14
B7: hzF2-m11 (VHH)
VHH: EVQLVESGGGLVQPGGSLRLSCAASRDSDDGASCMGWFRQAPGKEREGVAIIFNAGERTDYGDSVKGRFTISRDNAKNTLYLQMNSLRAEDTAVYYCATVYCGSYVARSWGQGTLVTVSS
notes: Framework 2 is KEREG; also called humanized single variable domain antibody hzF2-m11
B8: hzF2-m3 (VHH)
VHH: EVQLVESGGGLVQPGGSLRLSCAASRDSSSGASCMGWFRQAPGKGLEGVAIIFNAGERTDYGDSVKGRFTISRDNAKNTLYLQMNSLRAEDTAVYYCATVWCGSWVARSWGQGTLVTVSS
notes: The parent hzF2 is a VHH-human IgG1 Fc fusion; also called humanized single variable domain antibody hzF2-m3
B9: hzF2-m1 (VHH)
VHH: EVQLVESGGGLVQPGGSLRLSCAASRDSDDGASSMGWFRQAPGKGLEGVAIIFNAGERTDYGDSVKGRFTISRDNAKNTLYLQMNSLRAEDTAVYYCATVWSGSWVARSWGQGTLVTVSS
notes: The parent hzF2 is a VHH-human IgG1 Fc fusion; also called humanized single variable domain antibody hzF2-m1
B10: hzF2-m15 (VHH)
VHH: EVQLVESGGGLVQPGGSLRLSCAASRDSDEGASCMGWFRQAPGKEREGVAIIFNVGERTDYGDSVKGRFTISRDNAKNTLYLQMNSLRAEDTAVYYCATVFCGSYVARSWGQGTLVTVSS
notes: Framework 2 is KEREG; also called humanized single variable domain antibody hzF2-m15
B11: hzF2-m4 (VHH)
VHH: EVQLVESGGGLVQPGGSLRLSCAASRDSNDGASCMGWFRQAPGKGLEGVAIIFNAGERTDYGDSVKGRFTISRDNAKNTLYLQMNSLRAEDTAVYYCATVWCGSWVARSWGQGTLVTVSS
notes: The parent hzF2 is a VHH-human IgG1 Fc fusion; also called humanized single variable domain antibody hzF2-m4
B12: hzF2-m7 (VHH)
VHH: EVQLVESGGGLVQPGGSLRLSCAASRDSDDSASCMGWFRQAPGKGLEGVAIIFNAGERTDYGDSVKGRFTISRDNAKNTLYLQMNSLRAEDTAVYYCATVWCGSWVARSWGQGTLVTVSS
notes: The parent hzF2 is a VHH-human IgG1 Fc fusion; also called humanized single variable domain antibody hzF2-m7
B13: hzF2-m2 (VHH)
VHH: EVQLVESGGGLVQPGGSLRLSCAASGDSDDGASCMGWFRQAPGKGLEGVAIIFNAGERTDYGDSVKGRFTISRDNAKNTLYLQMNSLRAEDTAVYYCATVWCGSWVARSWGQGTLVTVSS
notes: The parent hzF2 is a VHH-human IgG1 Fc fusion; also called humanized single variable domain antibody hzF2-m2
B14: hzF2-m12 (VHH)
VHH: EVQLVESGGGLVQPGGSLRLSCAASRDSDEGASCMGWFRQAPGKEREGVAIIFNVGERTDYGDSVKGRFTISRDNAKNTLYLQMNSLRAEDTAVYYCATVWCGSWVARSWGQGTLVTVSS
notes: Framework 2 is KEREG; also called humanized single variable domain antibody hzF2-m12
B15: KN035 (fusion protein of the KN035 variable region and Fc) (Fc fusion)
chain: QVQLVESGGGLVQPGGSLRLSCAASGKMSSRRCMAWFRQAPGKERERVAKLLTTSGSTYLADSVKGRFTISRDNSKNTVYLQMNSLRAEDTAVYYCAADSFEDPTCTLVTSSGAFQYWGQGTLVTVSS
notes: Built by the same strategy as chF2; also called Envafolimab; control antibody; not shown: human Fc (IgG1, hFc) from the same expression vector and strategy as chF2

Key:
[1] = biological target: T1, human PD-L1 recombinant protein (human, UniProt Q9NZQ7 19-238); experiment: BLI, human PD-L1 recombinant protein
T1 construct: also called recombinant PD-L1 protein; recombinant PD-L1

[2] = biological target: T1, human PD-L1 recombinant protein; experiment: BLI (method per paragraph 89); target not given, taken as human PD-L1 recombinant protein
[3] = biological target: T2, human PD-L1 expressed on the cell surface (human, UniProt Q9NZQ7 19-290); experiment: cell-based or functional assay
[4] = biological target: T2, human PD-L1 expressed on the cell …; experiment: flow cytometry on CHO-PD-L1-CD3L cells, FITC anti-human Fc
Description: Cells (CHO-PD-L1-CD3L cells) were collected after centrifugation, divided into 5×10⁵ cells/sample/100 µL. Gradient diluted single variable domain antibody was added to the cells at a final concentration of 66 nM as the highest concentration, 3-fold serial dilution to make 10 gradients; then incubated on ice for 2h. The cells were washed twice with ice-cold PBS (containing 0.05% Tween). FITC-labeled anti-human Fc secondary antibody (Cat.: F9512, Sigma) was added, and incubated on ice for 1h. The cells were washed twice with ice-cold PBS (containing 0.05% Tween), resuspended in 200 µL of Flow Cytometry Buffer, and the mean fluorescence intensity (MFI) of the cells was detected by flow cytometer (Model B49007AD, SNAW31211, BECKMAN COULTER).

[5] = biological target: T1, human PD-L1 recombinant protein; experiment: BLI (Octet QKe), antibody captured on AHC probe, PD-L1 60 nM
Description: Using the Octet QKe system instrument from Fortebio Company, the ability of chF2 to bind corresponding recombinant antigen was determined by using the capture antibody (AHC) biological probe against the Fc fragment of the human antibody to capture the Fc fragment of the antibody. During the measurement, chF2 was diluted with PBS buffer to 4 µg/mL, and flowed over the surface of AHC probe (Cat.: 18-0015, PALL) for 120 s. A human PD-L1 recombinant protein was used as the mobile phase to interact with the antibody captured on the chip surface. The recombinant PD-L1 protein concentration was 60 nM. The binding time for each antigen was 300 s, and the final dissociation time was 300 s.

[6] = biological target: T3, monkey PD-L1 recombinant protein (monkey); experiment: BLI (Octet QKe), antibody captured on AHC probe, antigen 60 nM
T3 construct: also called recombinant monkey PD-L1
Description: (§1) The Octet QKe system instrument from Fortebio Company was used to determine whether chF2 could bind to recombinant monkey PD-L1 and recombinant murine PD-L1 by using the capture antibody (AHC) biological probe of anti-human antibody Fc segment to capture the Fc segment of the antibody. During the measurement, chF2 was diluted to 4 µg/mL with PBS buffer and flowed over the surface of AHC probe (PALL, Cat.: 18-0015) for 120 s. The monkey PD-L1 recombinant protein and the murine PD-L1 recombinant protein were used as mobile phases to interact with the antibodies captured on the surface of the chip. The PD-L1 recombinant protein concentration was 60 nM. The binding time of each antigen was 300 s, and the final dissociation time was 300 s.

[7] = biological target: T4, murine PD-L1 recombinant protein (murine, UniProt Q9EP73 19-238, limits assumed); experiment: BLI (Octet QKe), antibody captured on AHC probe, antigen as mobile phase
T4 construct: also called recombinant murine PD-L1
Description: as §1

PD-L1-mFc = biological target: T5, PD-L1-mFc (human, UniProt Q9NZQ7 19-238); experiment: blocking ELISA: PD-1-hFc coated at 0.5 µg/mL, 0.5 µg/mL PD-L1-mFc co-incubated with the titrated binder (50 nM, 1.5-fold, 10 points), detection with HRP-anti-mouse Fc; blocked partner PD-1-hFc
T5 construct: range 19-238; not shown: mouse Fc (mFc)
Description: Human PD-1-hFc (PD-1 Sequence No. NP_005009.2, 21aa-167aa) was diluted with PBS to 0.5 µg/mL, coated on an ELISA plate overnight at 4° C. Then the plate was blocked with 5% BSA for 60 min at 37° C. in a thermostatic incubator. Gradient dilutions of hzF2 and control antibody KN035, and an isotype control NC-hIgG1 (initial working concentration of 50 nM, 1.5-fold dilution to 10 concentration gradients), were added, then PD-L1-mFc (PD-L1 Sequence No. NP_054862.1, 19aa-238aa) was added at a working concentration of 0.5 µg/mL, co-incubated and reacted in a thermostatic incubator at 37° C. for 60 min. The plate was washed 4 times with PBST; then added 1:5000 diluted HRP-anti-mouse Fc (Cat.:115-035-071, Jackson Immuno Research) thereto, reacted for 45 min, and added TMB (Beijing Taitianhe Biology, Cat.: ME142) substrate to develop color for 15 min. After adding 2 M HCl to stop the reaction, the plate was read and recorded about the absorbance value of A450nm-630nm of the well plate by a reader taking 630 nm as the reference wavelength, and 450 nm as the detection wavelength.

T1 sequence (Q9NZQ7 19-238 limits assumed): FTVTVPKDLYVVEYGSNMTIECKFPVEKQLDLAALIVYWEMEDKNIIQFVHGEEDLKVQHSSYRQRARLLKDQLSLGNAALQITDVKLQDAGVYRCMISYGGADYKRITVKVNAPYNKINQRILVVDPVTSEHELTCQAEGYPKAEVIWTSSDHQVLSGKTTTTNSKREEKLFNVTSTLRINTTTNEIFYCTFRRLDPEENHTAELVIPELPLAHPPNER
T2 sequence (Q9NZQ7 19-290): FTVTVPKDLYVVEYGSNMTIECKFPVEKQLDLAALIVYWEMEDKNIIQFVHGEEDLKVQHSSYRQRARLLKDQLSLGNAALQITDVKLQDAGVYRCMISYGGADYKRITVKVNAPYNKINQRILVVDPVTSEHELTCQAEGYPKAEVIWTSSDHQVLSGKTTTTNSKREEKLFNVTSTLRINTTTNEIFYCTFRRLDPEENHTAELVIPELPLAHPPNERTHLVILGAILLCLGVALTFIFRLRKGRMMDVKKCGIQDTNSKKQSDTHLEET
T4 sequence (Q9EP73 19-238 limits assumed): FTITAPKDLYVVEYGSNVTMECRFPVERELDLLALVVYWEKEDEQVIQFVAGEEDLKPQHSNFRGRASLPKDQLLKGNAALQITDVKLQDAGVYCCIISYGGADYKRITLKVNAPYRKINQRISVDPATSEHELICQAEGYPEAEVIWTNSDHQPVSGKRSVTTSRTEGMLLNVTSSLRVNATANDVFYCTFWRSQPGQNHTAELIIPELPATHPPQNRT
T5 sequence (Q9NZQ7 19-238 limits assumed): as the sequence (Q9NZQ7 19-238 limits assumed) above

Row | Binder | Kd [1] [nM] | koff [1] [s⁻¹] | kon [1] [M⁻¹ s⁻¹] | Kd [2] [nM] | other results
1 | B1 | 1.34 | 0.000434 | 324000 | 1.34 | 
2 | B2 | 1.18 | 0.000419 | 356000 | 1.18 | 
3 | B3 |  |  |  | 4.26 | 
4 | B4 |  |  |  | 3.18 | 
5 | B5 |  |  |  | 4.31 | 
6 | B6 |  |  |  | 3.81 | 
7 | B7 |  |  |  | 3.24 | 
8 | B8 | 7.8 | 0.00487 | 624000 | 7.8 | 
9 | B9 | 2.8 | 0.0019 | 679000 | 2.8 | 
10 | B10 |  |  |  | 4.75 | 
11 | B11 | 9.36 | 0.0065 | 695000 | 9.36 | 
12 | B12 | 4.59 | 0.00157 | 341000 | 4.59 | 
13 | B13 | 1.26 | 0.000709 | 562000 | 1.26 | 
14 | B14 |  |  |  | 1.54 | 
15 | B15 |  |  |  |  | Reporter Gene Assay (Jurkat-PD1-NFAT cells and CHO-PD-L1-CD3L cells), luciferase RLU, EC50 [3]: 4.9 nM; EC50 [4]: 1.27 nM; Kd [5]: 1.5 nM; koff [5]: 0.00035 s⁻¹; kon [5]: 233000 M⁻¹ s⁻¹; Kd [6]: 1.32 nM; koff [6]: 0.000281 s⁻¹; kon [6]: 213000 M⁻¹ s⁻¹; binding result [7]: no binding (tested: 60 nM); IC50 (PD-L1-mFc): 8.1 nM
